Experimental data published in US20150044666A1.

How the values were obtained:
[1] = target: Recombinant HIV-1 p24 (HIV-1) (UniProt P04591); test: forward two-site immuno-PCR; p24 0.1 pg/mL; reporter MAb-DNA 5 pM
[2] = target: Recombinant HIV-1 p24 (HIV-1) (UniProt P04591); test: forward two-site immuno-PCR; p24 0.1 pg/mL; reporter MAb-DNA 10 pM
[3] = target: Recombinant HIV-1 p24 (HIV-1) (UniProt P04591); test: forward two-site immuno-PCR; p24 0.1 pg/mL; reporter MAb-DNA 15 pM
[4] = target: Recombinant HIV-1 p24 (HIV-1) (UniProt P04591); test: forward two-site immuno-PCR; p24 0.1 pg/mL; reporter MAb-DNA 20 pM
[5] = target: Recombinant HIV-1 p24 (HIV-1) (UniProt P04591); test: forward two-site immuno-PCR; p24 0.1 pg/mL; reporter MAb-DNA 50 pM
[6] = target: Recombinant HIV-1 p24 (HIV-1) (UniProt P04591); test: forward two-site immuno-PCR; p24 0.1 pg/mL; reporter MAb-DNA 2.5 pM
[7] = target: Recombinant HIV-1 p24 (HIV-1) (UniProt P04591); test: forward two-site immuno-PCR, 10 pM reporter MAb-DNA, capture MAb 739P on particles; p24 at 1 pg/mL
[8] = target: Recombinant HIV-1 p24 (HIV-1) (UniProt P04591); test: forward two-site immuno-PCR, 10 pM reporter MAb-DNA, capture MAb 739P on particles; p24 at 10 pg/mL
[9] = target: Recombinant HIV-1 p24 (HIV-1) (UniProt P04591); test: forward two-site immuno-PCR, 10 pM reporter MAb-DNA, capture MAb 739P on particles; p24 at 0.1 pg/mL
[10] = target: Recombinant HIV-1 p24 (HIV-1) (UniProt P04591); test: forward two-site immuno-PCR, 10 pM reporter MAb-DNA, capture MAb 739P on particles; p24 at 0.01 pg/mL
[11] = target: Recombinant HIV-1 p24 (HIV-1) (UniProt P04591); test: method not stated; rate and equilibrium constants listed for commercially available anti-HIV p24 antibodies

“NIH AIDS Research & Reference Reagent Program HIV-1 183-H12-5C (antibody)” was tested, and the Average ΔThreshold Cycle (ΔCp) over blank [1] was 2.6 cycles, the Average ΔThreshold Cycle (ΔCp) over blank [2] was 2.2 cycles and the Average ΔThreshold Cycle (ΔCp) over blank [3] was 2 cycles. For the same substance, the Average ΔThreshold Cycle (ΔCp) over blank [4] was 1.5 cycles, the Average ΔThreshold Cycle (ΔCp) over blank [5] was 0.9 cycles and the Average ΔThreshold Cycle (ΔCp) over blank [6] was 0.3 cycles. For the same substance, the Threshold Cycle (Ct) [7] was 20.6 cycles, the Threshold Cycle (Ct) [8] was 17.7 cycles and the Threshold Cycle (Ct) [9] was 23.8 cycles. It also gave a Threshold Cycle (Ct) [10] of 26.6 cycles, a Kd [11] of 3.93 nM and a koff [11] of 5.9e-05 s⁻¹. The kon [11] was 15000 M⁻¹ s⁻¹.
